In one data set the target is T1, DrRecJ;DrHerAΔN (Deinococcus radiodurans;Deinococcus …, UniProt D0EM60;Q9RW32 1-705;136-618, |).
T1 sequence 1: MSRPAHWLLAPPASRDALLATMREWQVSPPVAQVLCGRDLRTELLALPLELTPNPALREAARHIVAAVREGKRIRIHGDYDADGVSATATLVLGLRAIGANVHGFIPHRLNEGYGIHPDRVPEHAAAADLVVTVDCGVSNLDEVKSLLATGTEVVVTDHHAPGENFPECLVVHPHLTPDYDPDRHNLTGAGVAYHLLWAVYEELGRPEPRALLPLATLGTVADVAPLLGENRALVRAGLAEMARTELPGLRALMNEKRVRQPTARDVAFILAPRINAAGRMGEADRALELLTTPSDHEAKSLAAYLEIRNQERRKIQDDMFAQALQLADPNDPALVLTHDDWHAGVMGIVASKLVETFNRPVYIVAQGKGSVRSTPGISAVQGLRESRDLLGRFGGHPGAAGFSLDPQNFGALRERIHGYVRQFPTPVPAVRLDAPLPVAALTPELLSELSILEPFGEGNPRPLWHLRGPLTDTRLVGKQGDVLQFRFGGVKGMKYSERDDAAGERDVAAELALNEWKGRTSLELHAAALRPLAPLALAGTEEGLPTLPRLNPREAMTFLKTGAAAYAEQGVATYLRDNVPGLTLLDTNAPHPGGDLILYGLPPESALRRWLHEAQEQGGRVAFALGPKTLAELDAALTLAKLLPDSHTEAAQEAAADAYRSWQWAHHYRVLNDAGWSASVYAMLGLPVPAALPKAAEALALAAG
T1 sequence 2: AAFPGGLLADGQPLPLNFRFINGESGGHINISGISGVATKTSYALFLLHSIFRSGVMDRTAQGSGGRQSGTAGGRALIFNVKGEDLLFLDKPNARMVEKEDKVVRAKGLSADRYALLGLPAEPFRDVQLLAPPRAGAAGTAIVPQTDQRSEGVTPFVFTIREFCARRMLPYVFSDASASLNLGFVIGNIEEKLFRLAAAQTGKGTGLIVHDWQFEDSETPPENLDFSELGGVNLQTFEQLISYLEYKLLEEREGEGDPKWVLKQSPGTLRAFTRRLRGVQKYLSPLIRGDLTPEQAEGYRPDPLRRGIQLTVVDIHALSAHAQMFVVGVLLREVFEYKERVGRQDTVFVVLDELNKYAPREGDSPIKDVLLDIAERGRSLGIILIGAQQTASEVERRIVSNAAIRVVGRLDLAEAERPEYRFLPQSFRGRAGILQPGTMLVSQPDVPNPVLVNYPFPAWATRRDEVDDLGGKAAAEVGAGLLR
Kind of data set: EMSA; with 4 uM DrNurA (dimer, P6), 800 nM HerAΔN hexamer; stimulation not decreased; EMSA: 100 nM DNA, 80 mM NaCl, 20 mM Tris-HCl pH 7.5, 1 mM DTT, 30 C, 10 min, 5% TBE native PAGE. The note with it: protein: recombinant;recombinant; tags: HMT (His6-MBP) tag removed by TEV;N-terminal His6; copies: 1;6; label: 5' FAM; single strand.

In a further data set the target is T2, DrRecJ;DrHerA (Deinococcus radiodurans;Deinococcus …, UniProt D0EM60;Q9RW32 1-705;1-618, |).
T2 sequence 1: T1 sequence 1
T2 sequence 2: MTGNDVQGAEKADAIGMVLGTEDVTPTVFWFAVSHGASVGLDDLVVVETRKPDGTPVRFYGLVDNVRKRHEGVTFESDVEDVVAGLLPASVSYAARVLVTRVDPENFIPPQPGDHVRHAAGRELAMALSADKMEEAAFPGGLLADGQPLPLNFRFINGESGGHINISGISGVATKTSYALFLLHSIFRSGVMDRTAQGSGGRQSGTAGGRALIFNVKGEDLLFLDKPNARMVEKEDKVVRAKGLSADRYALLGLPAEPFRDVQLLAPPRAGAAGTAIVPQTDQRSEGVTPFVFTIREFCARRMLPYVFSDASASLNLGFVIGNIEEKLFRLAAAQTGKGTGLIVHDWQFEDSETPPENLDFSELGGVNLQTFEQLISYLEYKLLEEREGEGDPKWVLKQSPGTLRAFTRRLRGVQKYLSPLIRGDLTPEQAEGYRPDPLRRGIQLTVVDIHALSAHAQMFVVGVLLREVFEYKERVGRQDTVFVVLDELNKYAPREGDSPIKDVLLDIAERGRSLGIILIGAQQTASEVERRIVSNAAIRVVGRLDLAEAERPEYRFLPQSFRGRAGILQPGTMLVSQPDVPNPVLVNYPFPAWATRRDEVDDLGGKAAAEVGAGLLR
In words: EMSA; HerA hexamer:RecJ 8:1; super-shift, RecJ binding enhanced; EMSA: 100 nM DNA, 80 mM NaCl, 20 mM Tris-HCl pH 7.5, 1 mM DTT, 30 C, 10 min, 5% TBE native PAGE. The note with it: protein: recombinant;recombinant; tags: HMT (His6-MBP) tag removed by TEV;N-terminal His6; copies: 1;6; label: 5' FAM; single strand.

B1: O1 (10 nt ssDNA) (ssDNA)
DNA: AAAAAAAAAA
For B1, the binding result in the data set with DrRecJ;DrHerAΔN and in the data set with DrRecJ;DrHerA was “binds” each time.

These data come from PMC4663267, “A Novel C-Terminal Domain of RecJ is Critical for Interaction with HerA in Deinococcus radiodurans”.
